The term Kd denotes the equilibrium constant for the complex coming apart. As a reminder, the koff is a measure of how fast the partners let go of each other. Usually kon stands for the second-order rate constant of association.

Residue numbers refer to the chain shown, from its start.

These results are taken from patent US20200317779A1.

The labels stand for the following.
B1: D08 (antibody, human IgG1, lambda, L234A L235A, V domains shown)
VH: EVQLVESGGGLVQPGGSLKLSCAASGFTFNTYAMNWVRQASGKGLEWVGRIRSKYNNYATYYADSVKDRFTISRDDSQSTLYLQMNSLKTEDTAVYYCVRHGNFGNSYVSWFAYWGQGTLVTVSS
VL: QAVVTQEPSLTVSPGGTVTLTCRSSTGAVTTSNYANWFQQKPGQAPRGLIGGTNKRAPWTPARFSGSLLGDKAALTLSGAQPEDEAEYYCALWYSNLWVFGGGTKLTVLG
B2: H15 (antibody, human IgG1, lambda, L234A L235A, V domains shown)
VH: B1 VH with G49A
VL: B1 VL with F38V, D71G
B3: F15 (antibody, human IgG1, lambda, L234A L235A, V domains shown)
VH: B1 VH with G49A, Q78K, S79N
VL: B1 VL with F38V, D71G
B4: H16 (antibody, human IgG1, lambda, L234A L235A, V domains shown)
VH: B1 VH with G49A
VL: B1 VL with F38V
B5: E15 (antibody, human IgG1, lambda, L234A L235A, V domains shown)
VH: B1 VH with G49A, Q78K, S79N, L81A
VL: B1 VL with F38V, D71G
B6: G16 (antibody, human IgG1, lambda, L234A L235A, V domains shown)
VH: B1 VH with G49A, L81A
VL: B1 VL with F38V
B7: D15 (antibody, human IgG1, lambda, L234A L235A, V domains shown)
VH: B1 VH
VL: B1 VL with F38V, D71G
B8: F16 (antibody, human IgG1, lambda, L234A L235A, V domains shown)
VH: B1 VH with G49A, Q78K, S79N
VL: B1 VL with F38V
B9: A07 (antibody, human IgG1, lambda, L234A L235A, V domains shown)
VH: B1 VH with Q78K, S79N, L81A
VL: B1 VL with D71G
B10: E16 (antibody, human IgG1, lambda, L234A L235A, V domains shown)
VH: B1 VH with G49A, Q78K, S79N, L81A
VL: B1 VL with F38V
B11: A08 (antibody, human IgG1, lambda, L234A L235A, V domains shown)
VH: B1 VH with Q78K, S79N, L81A
VL: B1 VL
B12: A15 (antibody, human IgG1, lambda, L234A L235A, V domains shown)
VH: B1 VH with Q78K, S79N, L81A
VL: B1 VL with F38V, D71G
B13: G15 (antibody, human IgG1, lambda, L234A L235A, V domains shown)
VH: B1 VH with G49A, L81A
VL: B1 VL with F38V, D71G
B14: D16 (antibody, human IgG1, lambda, L234A L235A, V domains shown)
VH: B1 VH
VL: B1 VL with F38V

For the first test, the target named is recombinant cynomolgus monkey CD3ε/δ heterodimer (cynomolgus monkey) (UniProt Q95LI5). As to the kind of experiment: ELISA, coated CD3ε/δ.
Chain of recombinant cynomolgus monkey CD3ε/δ heterodimer (cynomolgus monkey) (Q95LI5 22-117, stated change not applied, chain 1 of 2): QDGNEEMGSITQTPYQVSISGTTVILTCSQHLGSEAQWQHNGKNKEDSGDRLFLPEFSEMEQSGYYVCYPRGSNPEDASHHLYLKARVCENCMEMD
Chain of recombinant cynomolgus monkey CD3ε/δ heterodimer (cynomolgus monkey) (Q95LI8 22-105, stated change not applied, chain 2 of 2, further chain): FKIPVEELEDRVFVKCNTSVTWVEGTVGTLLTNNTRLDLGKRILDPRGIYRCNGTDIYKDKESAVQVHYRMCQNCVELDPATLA
For B1, the Absorbance (450 nm) was determined as 2.53.
For the molecule B2, the Absorbance (450 nm) amounted to 2.84.
Consider B3, for which the Absorbance (450 nm) was 2.75.
Regarding B4, the Absorbance (450 nm) came out at 2.87.
As for B5, the Absorbance (450 nm) came out at 2.7.
Turning to B6, the Absorbance (450 nm) worked out at 2.77.
The same measure, in the same setting: the same measure for B7: 3.01; for B8: 2.85.
Regarding B9, the Absorbance (450 nm) worked out at 2.55.
As for B10, the Absorbance (450 nm) amounted to 2.74.
Regarding B11, the Absorbance (450 nm) stood at 2.34.
On to B12, for which the Absorbance (450 nm) was found to be 2.86.
Consider B13, for which the Absorbance (450 nm) turned out to be 2.69.
The same measure, in the same setting: then B14, with 2.87.

For the next test, the target named is recombinant human CD3ε/δ heterodimer (human) (UniProt P07766). In words: ELISA, coated CD3ε/δ. On the technique in general: ELISA stands for enzyme-linked immunosorbent assay.
Chain of recombinant human CD3ε/δ heterodimer (human) (P07766 23-126, stated change not applied, chain 1 of 2): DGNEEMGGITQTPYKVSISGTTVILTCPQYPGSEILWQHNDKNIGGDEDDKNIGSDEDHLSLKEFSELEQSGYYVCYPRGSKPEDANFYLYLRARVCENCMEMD
Chain of recombinant human CD3ε/δ heterodimer (human) (P04234 22-105, stated change not applied, chain 2 of 2, further chain): as the sequence (Q95LI8 22-105, stated change not applied, chain 2 of 2, further chain) above, with V5I, K15N, V20I, T32S, N33D, N34I, A64T, N74S, L83V counted along it
On to B1, for which the Absorbance (450 nm) turned out to be 0.897.
For B2, the Absorbance (450 nm) worked out at 2.44.
Still for that read-out and setting: the same measure for B3: 2.49; for B4: 2.46.
Still for that read-out and setting: then B5, with 2.41.
The same measure, in the same setting: then B6, with 2.48; and B7, with 2.53.
Take B8: the Absorbance (450 nm) stood at 2.46.
For B9, the Absorbance (450 nm) was 1.31.
B10: the Absorbance (450 nm) came out at 2.4.
Still for that read-out and setting: then B11, with 0.875; and B12, with 2.79; and B13, with 2.42.
The same measure, in the same setting: then B14, with 2.65.

The next test addresses recombinant cynomolgus monkey CD3ε/δ heterodimer (cynomolgus monkey) (UniProt Q95LI5). In words: BLI (Octet), antigen on anti-Penta His sensor, antibody 50 nM. For orientation: In BLI a coated tip is dipped into the sample, and binding shifts an interference pattern.
With B1, the Kd was 21.6 nM, the koff is 0.00266 s⁻¹ and the kon turned out to be 123000 M⁻¹ s⁻¹.
The like results for B2 were, in that order, 1.17 nM, 0.000269 s⁻¹ and 230000 M⁻¹ s⁻¹.
The like results for B3 were, in that order, 1.33 nM, 0.000297 s⁻¹ and 224000 M⁻¹ s⁻¹.
Consider B4, for which the Kd was 1.13 nM, the koff came to 0.000206 s⁻¹ and the kon came out at 182000 M⁻¹ s⁻¹.
The like results for B5 were, in that order, 1.86 nM, 0.00054 s⁻¹ and 290000 M⁻¹ s⁻¹.
On to B6, for which the Kd was 1.75 nM, the koff stood at 0.00034 s⁻¹ and the kon amounted to 195000 M⁻¹ s⁻¹.
The corresponding values for B7 are 0.533 nM, 0.000233 s⁻¹ and 437000 M⁻¹ s⁻¹.
The like results for B8 were, in that order, 1.37 nM, 0.000253 s⁻¹ and 185000 M⁻¹ s⁻¹.
The corresponding values for B9 are 20.5 nM, 0.00315 s⁻¹ and 153000 M⁻¹ s⁻¹.
As for B10, the Kd was found to be 2.19 nM, the koff came to 0.000482 s⁻¹ and the kon worked out at 220000 M⁻¹ s⁻¹.
Take B11: the Kd came to 21.9 nM, the koff stood at 0.00321 s⁻¹ and the kon was found to be 147000 M⁻¹ s⁻¹.
The like results for B12 were, in that order, 0.364 nM, 0.000165 s⁻¹ and 453000 M⁻¹ s⁻¹.
The corresponding values for B13 are 1.72 nM, 0.000461 s⁻¹ and 269000 M⁻¹ s⁻¹.
In the case of B14, the Kd was 0.611 nM, the off-rate constant (koff) was 0.000217 s⁻¹ and the kon came out at 356000 M⁻¹ s⁻¹.

Another test deals with recombinant human CD3ε/δ heterodimer (human) (UniProt P07766). Described as above.
With B1, the Kd amounted to 35 nM, the koff is 0.00287 s⁻¹ and the kon turned out to be 82000 M⁻¹ s⁻¹.
The like results for B2 were, in that order, 0.953 nM, 0.000189 s⁻¹ and 199000 M⁻¹ s⁻¹.
In the case of B3, the Kd was determined as 1.04 nM, the koff is 0.000206 s⁻¹ and the kon stood at 197000 M⁻¹ s⁻¹.
For B4, the Kd was 0.881 nM, the koff worked out at 0.00012 s⁻¹ and the kon was determined as 136000 M⁻¹ s⁻¹.
The like results for B5 were, in that order, 1.74 nM, 0.000392 s⁻¹ and 225000 M⁻¹ s⁻¹.
As for B6, the Kd stood at 1.32 nM, the koff came to 0.000201 s⁻¹ and the kon was 153000 M⁻¹ s⁻¹.
For B7, the Kd worked out at 0.294 nM, the koff was 9.6e-05 s⁻¹ and the kon came out at 327000 M⁻¹ s⁻¹.
The like results for B8 were, in that order, 0.852 nM, 0.00012 s⁻¹ and 141000 M⁻¹ s⁻¹.
With B9, the Kd is 19.5 nM, the koff turned out to be 0.00232 s⁻¹ and the kon worked out at 119000 M⁻¹ s⁻¹.
The corresponding values for B10 are 1.76 nM, 0.000284 s⁻¹ and 162000 M⁻¹ s⁻¹.
The corresponding values for B11 are 22.2 nM, 0.00226 s⁻¹ and 102000 M⁻¹ s⁻¹.
The corresponding values for B12 are 0.296 nM, 9.58e-05 s⁻¹ and 323000 M⁻¹ s⁻¹.
For B13, the Kd was 1.59 nM, the koff was 0.000332 s⁻¹ and the kon is 209000 M⁻¹ s⁻¹.
In the case of B14, the Kd came to 0.446 nM, the koff came to 0.000107 s⁻¹ and the kon was 240000 M⁻¹ s⁻¹.
